Reference: publication doi:10.1101/2024.01.05.574350, “Heparan sulfate selectively inhibits the collagenase activity of cathepsin K” (bioRxiv, 2024)

Target: T1, mature cathepsin K (murine) (murine, UniProt P55097 115-329)
T1 construct: cathepsin K, murine; catalytic Cys25; 22 kDa as printed; No tag is named; also called CtsK; mature CtsK; source: 293-Freestyle cells, transient expression of pro-CtsK
T1 sequence (looked up): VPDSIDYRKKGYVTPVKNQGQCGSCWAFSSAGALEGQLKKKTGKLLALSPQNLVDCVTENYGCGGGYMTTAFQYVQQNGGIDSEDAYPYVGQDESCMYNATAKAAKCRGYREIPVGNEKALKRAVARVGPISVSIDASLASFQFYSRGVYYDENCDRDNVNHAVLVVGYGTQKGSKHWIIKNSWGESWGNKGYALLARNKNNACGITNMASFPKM
Test: SEC; CtsK and Cst3 without HS, Superdex200 column
Details: both partners purified

- stoichiometry N: 1
B1: Cystatin C (natural protein, UniProt P21460 21-140, looked up)
chain: ATPKQGPRMLGAPEEADANEEGVRRALDFAVSEYNKGSNDAYHSRAIQVVRARKQLVAGVNYFLDVEMGRTTCTKSQTNLTDCPFHDQPHLMRKALCSFQIYSVPWKGTHSLTKFSCKNA
notes: Cystatin C (Cst3), 13 kDa as printed; The printed residues (Pro7, Met9, Leu10, Gly11, Ala12, Leu56-Gly59, Pro105-Lys107) fit mature mouse cystatin C as I recall it, not the human protein; human cystatin C (PDB 3GAX) was only the search model for molecular replacement; also called Cst3; Cts3
